# Measurements as given in the supplement of paper PMC10567573.
# ± gives the standard deviation.
# Assay: protein stability index of a GFP-peptide fusion (GPS, HEK-293T) (PSI 1-6); higher = more stable
# Conditions: c terminus: a fixed tail appended
# 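Also: 24-mer peptide tiles fused after GFP, lentivirally expressed, FACS-sorted into six equal bins by GFP/DsRed ratio, decoded by Illumina sequencing, PSI is the read-weighted mean bin number.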
Sequence,protein stability index (treatment: DMSO),"protein stability index (treatment: MLN4924 1 uM, 8 h)"
LKKPIKGKQAPRKKAQGKTQQNRK [KMT5A],4.29 ± 0.2,4.45 ± 0.23
LKLKNKLLQADREHLPVKPDTMEK [DENND6A],4.35 ± 0.34,4.33 ± 0.22
LKLLNVLEEYITDEQKEEEEEEGE [FAM9B],4.94 ± 0.18,4.93 ± 0.29
LKLMDRHKKDCAREKPFKCQECGK [ZNF75A],3.74 ± 0.37,3.95 ± 0.28
LKLQTKTIKVSYARPSSASIRDAN [ELAVL3],2.77 ± 0.37,2.91 ± 0.32
LKTSKMALSPSATAKRINRTSLSS [CDC14A],3.71 ± 0.26,3.54 ± 0.25
LLDIKTRLEQEIATYRSLLEGQDA [KRT13],3.45 ± 0.19,3.51 ± 0.26
LLEDMRASEAFHWDERGRAAAYSP [ANKRD9],2.7 ± 0.44,3.18 ± 0.54
LLGEETPMAADEGSAEKQAGEAHM [EHMT1],5.66 ± 0.31,5.57 ± 0.38
LLKAGADVNKTDHSQRTALHLAAQ [INVS],4.11 ± 0.33,4.09 ± 0.17
LLKITIPNAFIGSDVVDWLYHNVE [DVL3],2.31 ± 0.63,2.26 ± 0.28
LLKTLYNSIKNEKLEWAIDEDELR [PSD2],2.61 ± 0.43,2.07 ± 0.32
LLRTARVRRECWFLPTALLCAYGF [SLC19A2],2.54 ± 0.8,2.54 ± 0.43
LLYAQGLLAIQFLEFFYGIATATE [SLC19A2],3.53 ± 0.64,3.2 ± 0.037
LMFLDICSELNKLCQHFEAVHSGT [SPACA9],2.67 ± 0.72,2.4 ± 0.29
LNDRLASYLDKVRALEEANTELEV [KRT17],4.03 ± 0.11,4.17 ± 0.17
LNELERLSNLVGKPSENHPLHNSG [MED27],4.06 ± 0.25,4.31 ± 0.24
LNPHIHLMGDESACIAYIRITQYL [CAMK2A],2.8 ± 0.44,2.71 ± 0.51
LPACTLCAGPLEDAVTIPCGHTFC [TRIM15],3.818 ± 0.022,4.16 ± 0.35
LPDELGSQLPQVLHVSLGQKLVAA [MOSPD3],3 ± 0.34,3.14 ± 0.089
LPHQSHRQRSSLAKINIVYQELNY [SCNN1D],2.54 ± 0.23,2.54 ± 0.3
LPKPPGTPVVTESTATSITLTWDS [PTPRD],3.88 ± 0.087,3.88 ± 0.18

Sequence,protein stability index (treatment: DMSO),"protein stability index (treatment: MLN4924 1 uM, 8 h)"
LPPDVTTQSVMGFDPLPPSDTIYS [TCF25],4.19 ± 0.16,4.37 ± 0.34
LPRKDYESLDYDRCINDPYLEVLE [CLCN6],3.4 ± 0.24,3.58 ± 0.18
LPSERWNPTQNVRTILLSVISLLN [CDC34],3.53 ± 0.2,3.58 ± 0.33
LQKLSALLMTADILAETGIRKTVK [ELOA2],2.48 ± 0.64,2.34 ± 0.45
LRNTLKSTSEDSLVKQECIKEVVE [FAN1],4.63 ± 0.3,5.01 ± 0.23
LRQQQDEAYLASLRADQEKERKKR [FAF2],4.36 ± 0.57,4.53 ± 0.4
LSASSPRMLHRSTQTTNDGVCQSM [ZMYND11],4 ± 0.24,4.34 ± 0.18
LSDEDDGFVDLLDGENLKNEEETP [CDC25A],5.48 ± 0.33,5.4 ± 0.31
LSEVKPPPPPPPAQTFLFQGQPVV [TRADD],3.89 ± 0.38,4.07 ± 0.2
LSFLDYRDLINCCYVSRRLSQLSS [FBXO3],2.59 ± 0.18,2.14 ± 0.48
LSLKRELSWYRGRRPRTAFTQNQI [HESX1],2.41 ± 0.27,2.66 ± 0.14
LSPAGSSQEAADTPDTRHPCSLGS [YJU2B],5.24 ± 0.21,5.3 ± 0.23
LSPDPEERPGAEGAPLLPPPLPPP [ACBD3],5.27 ± 0.15,5.32 ± 0.17
LTEHKRIHTGKKPHVCSLCGKAFY [ZNF649],2.83 ± 0.38,3.32 ± 0.56
LTKTFQGPAVVCGTPTSHVYMFKN [LYSMD4],2.45 ± 0.22,2.63 ± 0.15
LTRVLAEMREQYEAMAEKNRRDVE [KRT15],3.47 ± 0.31,3.93 ± 0.28
LTVRKSQSEPSEQDGVLDLSTKKS [LCOR],5.15 ± 0.25,5.22 ± 0.24
LVAFVLLNECVGTAYWALAGSIGG [SLC22A15],3.05 ± 0.34,2.86 ± 0.38
LVDQSKKANSPLKGHERTVQYLQH [VPS39],4 ± 0.3,3.85 ± 0.32
LVKKYGTKQWTLIAKHLKGRLGKQ [MYBL2],2.43 ± 0.89,2.45 ± 0.53
LWPFAWLQVAGLSEEQLQEPITGW [LPCAT4],2.38 ± 0.18,2.5 ± 0.34
LYKSLKTLSAELVPWLNLKKQDEN [CEP70],2.37 ± 0.49,2.03 ± 0.37
